Results taken from US20230272070A1 (published 2023).
Changes are numbered by the printed parent chain.

B1: F6 antibody (antibody, human IgG1, V domains shown)
VH: EVQLVQSGAEVKKPGESLKISCKGSGYSFTSYWIGWVRQMPGKGLEWMGIIYPGDSDTRYSPSFQGQVTISADKSISTAYLQWSSLKASDTAMYYCARVWYYDFWSGADAFDIWGQGTLVTVSS
VL: EIVMTQSPATLSVSPGERATLSCRASQSVSSNLAWYQQKPGQAPRLLIYGASTRATGIPARFSGSGSGTEFTLTISSLQSEDFAVYYCQQGSLEAPQTFGQGTKVEIK
notes: Tested as human IgG1; also called human IgG1 F6 anti-CD19 antibody
B2: 9G8 antibody (antibody, human IgG1, V domains shown)
VH: EVQLVQSGAEVKKPGESLKISCKGSGYSFTSYWIGWVRQMPGKGLEWMGIIYPGDSDTRYSPSFQGQVTISADKSISTAYLQWSSLKASDTAMYYCARGVSGIYNLHGFDIWGQGTLVTVSS
VL: DIQMTQSPSSLSASVGDRVTITCRASQSISSYLNWYQQKPGKAPKLLIYAASSLQSGVPSRFSGSGSGTDFTLTISSLQPEDFATYYCQQGRFGSPFTFGQGTKVEIK
notes: also called human IgG1 9G8 anti-CD19 antibody
B3: 7F11 antibody (antibody, human IgG1, V domains shown)
VH: B2 VH
VL: B2 VL with R92M, F93W, G94D, S95N
notes: Tested as human IgG1; also called human IgG1 7F11 anti-CD19 antibody
B4: 5F5 antibody (antibody, human IgG1, V domains shown)
VH: B2 VH with V100I
VL: B2 VL with G91A, R92S, F93L, G94D, F97L
notes: Tested as human IgG1; also called human IgG1 5F5 anti-CD19 antibody
B5: 10D8 antibody (antibody, human IgG1, V domains shown)
VH: QVQLVQSGAEVKKPGSSVKVSCKASGGTFSSYAISWVRQAPGQGLEWMGGIIPIFGTANYAQKFQGRVTITADESTSTAYMELSSLRSEDTAVYYCARDRGYDYVWGSYRYGAFDIWGQGTLVTVSS
VL: QSALTQPASVSGSPGQSITISCTGTSSDVGGYNYVSWYQQHPGKAPKLMIYEVSNRPSGVSNRFSGSKSGNTASLTISGLQAEDEADYYCSSYDVWVPHMVFGGGTKLTVL
notes: Tested as human IgG1; also called human IgG1 10D8 anti-CD19 antibody
B6: 7F1 antibody (antibody, human IgG1, V domains shown)
VH: EVQLVQSGAEVKKPGESLKISCKGSGYSFTSYWIGWVRQMPGKGLEWMGIIYPGDSDTRYSPSFQGQVTISADKSISTAYLQWSSLKASDTAMYYCARGDYWTGFAYWGQGTLVTVSS
VL: QSVLTQPPSVSAAPGQKVTISCSGSSSNIGNNYVSWYQQLPGTAPKLLIYDNNKRPSGIPDRFSGSKSGTSATLGITGLQTGDEADYYCGTWDLGWNSVFGGGTKLTVL
notes: Tested as human IgG1; also called human IgG1 7F1 anti-CD19 antibody

molecular target: T1, human CD19 (human, UniProt P15391 20-556); assay: flow cytometry on human versus cynomolgus PBMC; reference: binding to cynomolgus PBMC
T1 construct: whole, on cells; also called huCD19
T1 sequence (looked up): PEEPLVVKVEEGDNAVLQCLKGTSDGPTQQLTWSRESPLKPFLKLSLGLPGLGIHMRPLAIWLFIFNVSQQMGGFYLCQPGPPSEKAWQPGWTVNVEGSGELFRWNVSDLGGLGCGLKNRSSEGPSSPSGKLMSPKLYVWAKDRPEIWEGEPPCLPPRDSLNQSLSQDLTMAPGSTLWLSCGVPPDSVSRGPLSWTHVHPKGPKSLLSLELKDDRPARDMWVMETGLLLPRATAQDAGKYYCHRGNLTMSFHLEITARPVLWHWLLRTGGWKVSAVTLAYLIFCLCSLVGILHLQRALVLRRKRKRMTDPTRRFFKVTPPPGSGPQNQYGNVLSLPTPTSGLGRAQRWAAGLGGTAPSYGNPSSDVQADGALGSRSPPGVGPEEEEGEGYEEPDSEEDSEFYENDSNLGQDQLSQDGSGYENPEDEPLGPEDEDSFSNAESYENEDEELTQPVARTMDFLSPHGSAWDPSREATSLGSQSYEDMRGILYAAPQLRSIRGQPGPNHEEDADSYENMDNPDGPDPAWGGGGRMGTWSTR
Method: The ability of various anti-CD19 antibodies of the disclosure to bind various peripheral blood mononuclear cells (PBMC). Human and cynomolgus PBMC from frozen aliquots in citrate buffer were tested. […] The PBMC were labelled with anti-CD20-PE monoclonal antibody (mAb), anti-CD14-FITC mAb, and anti-CD3-PerCP mAb cross-reactive both to human and cynomolgus species. Cell surface bound hIgG1 were detected with a mouse anti-human IgG Fc-APC mAb. FACS gating was performed with the anti-CD20 mAb for the B lymphocyte population, with the anti-CD3 for the T lymphocyte population and with anti-CD14 for the monocyte population.

Binder | fold higher binding on human than on cynomolgus PBMC
B1 | ≤ 10 fold
B2 | ≤ 10 fold
B3 | ≤ 10 fold
B4 | ≤ 10 fold
B5 | ≤ 10 fold
B6 | ≤ 10 fold
